B1: PTPN2 (Homo sapiens) (protein)
chain: MPTTIEREFEELDTQRRWQPLYLEIRNESHDYPHRVAKFPENRNRNRYRDVSPYDHSRVKLQNAENDYINASLVDIEEAQRSYILTQGPLPNTCCHFWLMVWQQKTKAVVMLNRIVEKESVKCAQYWPTDDQEMLFKETGFSVKLLSEDVKSYYTVHLLQLENINSGETRTISHFHYTTWPDFGVPESPASFLNFLFKVRESGSLNPDHGPAVIHCSAGIGRSGTFSLVDTCLVLMEKGDDINIKQVLLNMRKYRMGLIQTPDQLRFSYMAIIEGAKCIKGDSSIQKRWKELSKEDLSPAFDHSPNKIMTEKYNGNRIGLEEEKLTGDRCTGLSSKMQDTMEENSESALRKRIREDRKATTAQKVQQMKQRLNENERKRKRWLYWQPILTKMGFMSVILVGAFVGWTLFFQQNAL
B2: SSH2 (Homo sapiens) (protein)
chain: MALVTVQRSPTPSTTSSPCASEADSGEEECRSQPRSISESFLTVKGAALFLPRGNGSSTPRISHRRNKHAGDLQQHLQAMFILLRPEDNIRLAVRLESTYQNRTRYMVVVSTNGRQDTEESIVLGMDFSSNDSSTCTMGLVLPLWSDTLIHLDGDGGFSVSTDNRVHIFKPVSVQAMWSALQSLHKACEVARAHNYYPGSLFLTWVSYYESHINSDQSSVNEWNAMQDVQSHRPDSPALFTDIPTERERTERLIKTKLREIMMQKDLENITSKEIRTELEMQMVCNLREFKEFIDNEMIVILGQMDSPTQIFEHVFLGSEWNASNLEDLQNRGVRYILNVTREIDNFFPGVFEYHNIRVYDEEATDLLAYWNDTYKFISKAKKHGSKCLVHCKMGVSRSASTVIAYAMKEYGWNLDRAYDYVKERRTVTKPNPSFMRQLEEYQGILLASKQRHNKLWRSHSDSDLSDHHEPICKPGLELNKKDITTSADQIAEVKTMESHPPIPPVFVEHMVPQDANQKGLCTKERMICLEFTSREFHAGQIEDELNLNDINGCSSGCCLNESKFPLDNCHASKALIQPGHVPEMANKFPDLTVEDLETDALKADMNVHLLPMEELTSPLKDPPMSPDPESPSPQPSCQTEISDFSTDRIDFFSALEKFVELSQETRSRSFSHSRMEELGGGRNESCRLSVVEVAPSKVTADDQRSSSLSNTPHASEESSMDEEQSKAISELVSPDIFMQSHSENAISVKEIVTEIESISQGVGQIQLKGDILPNPCHTPKKNSIHELLLERAQTPENKPGHMEQDEDSCTAQPELAKDSGMCNPEGCLTTHSSIADLEEGEPAEGEQELQGSGMHPGAKWYPGSVRRATLEFEERLRQEQEHHGAAPTCTSLSTRKNSKNDSSVADLAPKGKSDEAPPEHSFVLKEPEMSKGKGKYSGSEAGSLSHSEQNATVPAPRVLEFDHLPDPQEGPGSDTGTQQEGVLKDLRTVIPYQESETQAVPLPLPKRVEIIEYTHIVTSPNHTGPGSEIATSEKSGEQGLRKVNMEKSVTVLCTLDENLNRTLDPNQVSLHPQVLPLPHSSSPEHNRPTDHPTSILSSPEDRGSSLSTALETAAPFVSHTTHLLSASLDYLHPQTMVHLEGFTEQSSTTDEPSAEQVSWEESQESPLSSGSEVPYKDSQLSSADLSLISKLGDNTGELQEKMDPLPVACRLPHSSSSENIKSLSHSPGVVKERAKEIESRVVFQAGLTKPSQMRRSASLAKLGYLDLCKDCLPEREPASCESPHLKLLQPFLRTDSGMHAMEDQESLENPGAPHNPEPTKSFVEQLTTTECIVQSKPVERPLVQYAKEFGSSQQYLLPRAGLELTSSEGGLPVLQTQGLQCACPAPGLAVAPRQQHGRTHPLRRLKKANDKKRTTNPFYNTM

Substrate: Cc1cc(=O)oc2c(F)c(OP(=O)(O)O)c(F)cc12
Assay: purified protein, by the assay type
Design: DiFMUP hydrolysis by purified PTPs, fluorescence Ex355/Em460, initial rates over 10 min; Michaelis-Menten and Lineweaver-Burk Km
Experimental: The enzymatic activity of each PTP was evaluated using 6,8-difluoro-4-methylumbelliferyl phosphate (DiFMUP) as the surrogate substrate. To reach within the range of the initial rate (v0) during the measurement for 10 min, the pH and concentration of each PTP were optimized and are listed in Table S3. To determine the Km values, each PTP with optimized concentration was added to the reaction buffer (20 mM Bis-Tris at pH 6.0 or Tris at pH 7.0 and 8.0, 150 mM NaCl, 2.5 mM dithiothreitol (DTT), 0.01% Triton X-100) containing various concentrations of DiFMUP to obtain a final volume of 100 μL in a 96-well plate. Fluorescence intensities were measured once every minute for a complete 10 min duration using a Victor™ X4 Multilabel Plate Reader (Perkin Elmer, Waltham, MA, USA) at excitation/emission = 355 nm/460 nm. The initial rates of the reaction were determined using a previously described procedure for calculating the amount of product formation. To screen a library of 1033 natural products (Chengdu Biopurify Phytochemicals Ltd., Chengdu, China) against 20 PTPs, each PTP with an optimized concentration was added to the reaction buffer with an optimized pH containing DiFMUP (2 × Km for each PTP) after adding each compound (20 μM). […] The IC50 values were estimated using a sigmoid plot in GraphPad Prism 5 software (GraphPad Software Inc., San Diego, CA, USA). The Hill coefficient (nH), the degree of cooperativity, was calculated according to a previously published method. To determine the inhibition constant (Ki) and identify the inhibition mode of EG, various concentrations of EG (2.5, 5, 10, and 20 μM) were assayed with various concentrations of DiFMUP (260, 130, 65, and 32.5 μM). Kinetic parameters were obtained using Dixon plots for Ki and Lineweaver-Burk plots for the inhibition mode.

Protein	Km
B1	20.0 µM
B2	215.3 µM
